Source: patent US20130266605A1, “PEPTIDE INHIBITORS OF CD40L SIGNALING AND USES THEREFOR” (PHYLOGICA LIMITED, priority 2010, published 2013)
Read-outs that look alike come from different tables or passages of the source. Positions of bridges follow the written chain, without caps; N, C: chain ends. Residues, ends and D or L forms follow the SMILES beside them. Chains are numbered I, II in the order given. No end group written: not given here. PEG = not defined here

Experiments:
[1] = test system: TNFα-induced cytoxicity; experiment: TNFα-induced cytotoxicity control assay; format: cell-based; settings: in words; specificity control
Protocol: As a control in these assays, LPS-induced expression of CD86 mediated by the Toll-like receptors TLR 2/4, and TNFα-induced cytoxicity, were also assayed to exclude effects mediated by ligands other than CD40L.

[2] = molecular target: T1, CD40L-CD40 interaction (Homo sapiens, UniProt P29965); experiment: Chemiluminescent proximity assay (Alphascreen); format: binding
T1 sequence (P29965 113-261 limits assumed): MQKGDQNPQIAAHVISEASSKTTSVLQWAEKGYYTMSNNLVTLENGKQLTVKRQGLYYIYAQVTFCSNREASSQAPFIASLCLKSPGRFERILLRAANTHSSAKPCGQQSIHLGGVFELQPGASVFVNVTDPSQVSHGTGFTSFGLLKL
Protocol: In one example, the Alphascreen assay (PerkinElmer) was employed according to the manufacturer's instructions.
Homodimers and heterodimers were also assayed by chemiluminescent proximity assay for their ability to inhibit CD40L-CD40 interaction.

[3] = molecular target: T2, CD40L (Homo sapiens, UniProt P29965); experiment: Octet Red label-free association/dissociation analysis; format: binding
T2 sequence (P29965 113-261 limits assumed): T1 sequence (P29965 113-261 limits assumed)
Protocol: Label-free analyses of the associations and dissociations of base peptides and serine derivatives of base peptides with the CD40L target protein were performed using the Octet Red system (ForteBio, Inc., USA) according to the manufacturer's instructions. These analyses provide kinetic constants of CD40L binding activity, especially the association rate constant (Ka) and dissociation rate constant ([…]) of binding, i.e., measures of the “on” and “off” rates of the peptides relative to soluble CD40L.

[4] = molecular target: T3, CD40 ligand (UniProt P29965 108-261, limits assumed); experiment: phage-displayed peptide on bound CD40L, soluble CD40L as competitor
T3 construct: Used immobilised, soluble, or biotinylated on streptavidin beads; also called CD154; soluble CD40L
T3 sequence (looked up): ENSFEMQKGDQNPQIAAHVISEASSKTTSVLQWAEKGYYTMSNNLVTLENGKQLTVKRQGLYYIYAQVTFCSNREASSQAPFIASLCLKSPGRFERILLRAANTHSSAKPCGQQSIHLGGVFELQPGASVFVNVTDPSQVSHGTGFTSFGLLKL

[5] = molecular target: T3, CD40 ligand; experiment: Alphascreen proximity assay, inhibition of CD40L-CD40
[6] = molecular target: T3, CD40 ligand; experiment: cell-based or functional assay
[7] = molecular target: T3, CD40 ligand; experiment: Alphascreen, PEGylated peptide, inhibition of CD40L/CD40-Fc
[8] = molecular target: T3, CD40 ligand; experiment: cell-based or functional assay; remark: listed apart in the source
[9] = molecular target: T3, CD40 ligand; experiment: Alphascreen, unmodified peptide, inhibition of CD40L/CD40-Fc
[10] = molecular target: T3, CD40 ligand; experiment: Octet Red label-free (BLI)
[11] = molecular target: T4, CD40 ligand, P29965; experiment: Alphascreen, unmodified peptide, inhibition of CD40L/CD40-Fc
T4 chain: T3 sequence (looked up)

[12] = molecular target: T4, CD40 ligand, P29965; experiment: Octet Red label-free (BLI)
[13] = base peptides, equilibrium dissociation constant, read-out: KD

## CC[C@H](C)[C@H](NC(=O)[C@H](CO)NC(=O)[C@H](Cc1ccccc1)NC(=O)[C@@H](NC(=O)[C@H](CC(N)=O)NC(=O)[C@H](CCCCN)NC(=O)[C@@H](NC(=O)[C@H](CO)NC(=O)[C@H](Cc1ccccc1)NC(=O)[C@@H]1CCCN1C(=O)[C@@H](N)Cc1c[nH]cn1)[C@@H](C)CC)C(C)C)C(=O)N[C@@H](Cc1c[nH]c2ccccc12)C(=O)N[C@@H](CC(N)=O)C(=O)N[C@@H](Cc1ccccc1)C(=O)N[C@@H](Cc1ccccc1)C(=O)N[C@@H](CO)C(=O)N[C@H](C(=O)N[C@@H](Cc1ccc(O)cc1)C(=O)O)C(C)C [CD40L M1_6s] (H-HPFSIKNVFSIWNFFSVY-OH; N-terminus and C-terminus assumed)
[1]
  significant inhibition of TNFα-induced cell death / cytoxicity: lack of inhibition and none
[2]; Alphascreen proximity assay, monomeric and dimeric peptides (Table 5), read-out: EC50
  EC50: 0.122 to 0.323 nM

## CC[C@H](C)[C@H](NC(=O)[C@H](CC(C)C)NC(=O)[C@H](Cc1c[nH]c2ccccc12)NC(=O)[C@H](CCSC)NC(=O)[C@H](CCC(=O)O)NC(=O)CNC(=O)[C@H](CCC(=O)O)NC(=O)[C@H](CC(C)C)NC(=O)[C@H](CO)NC(=O)[C@H](CCC(=O)O)NC(=O)[C@@H](NC(=O)[C@@H](N)CCCNC(=N)N)[C@@H](C)CC)C(=O)N[C@@H](CC(N)=O)C(=O)N1CCC[C@H]1C(=O)N[C@@H](Cc1ccccc1)C(=O)N[C@@H](CC(N)=O)C(=O)NCC(=O)N[C@@H](CCC(=O)O)C(=O)N[C@H](C(=O)N[C@@H](CC(C)C)C(=O)N[C@@H](CC(=O)O)C(=O)N[C@@H](CCC(=O)O)C(=O)N[C@@H](Cc1c[nH]cn1)C(=O)N[C@H](C(=O)N[C@@H](CC(C)C)C(=O)N[C@@H](CCC(=O)O)C(=O)N[C@H](C(=O)N[C@@H](Cc1c[nH]c2ccccc12)C(=O)N[C@@H](CC(C)C)C(=O)N[C@@H](CCCCN)C(=O)O)C(C)C)[C@@H](C)O)[C@@H](C)O [CD40L M8_748] (H-RIESLEGEMWLINPFNGETLDEHTLEVWLK-OH)
[3]
  Kd: 5 nM
[2]
  EC50: 184 nM

## CC[C@H](C)[C@H](NC(=O)[C@H](CC(N)=O)NC(=O)[C@H](Cc1ccccc1)NC(=O)[C@@H]1CCCN1C(=O)[C@@H](NC(=O)[C@H](CC(N)=O)NC(=O)[C@@H](NC(=O)CNC(=O)[C@H](Cc1ccccc1)NC(=O)[C@H](CC(C)C)NC(=O)[C@@H](NC(=O)[C@H](Cc1ccccc1)NC(=O)[C@H](CO)NC(=O)[C@@H](N)Cc1c[nH]cn1)C(C)C)C(C)C)C(C)C)C(=O)N[C@H](C(=O)N[C@@H](CC(=O)O)C(=O)N[C@@H](Cc1ccccc1)C(=O)N[C@@H](CCC(N)=O)C(=O)N[C@@H](CCSC)C(=O)N[C@@H](CCCNC(=N)N)C(=O)N[C@H](C(=O)N[C@@H](CCCCN)C(=O)N[C@@H](CS)C(=O)O)C(C)C)[C@@H](C)CC [CD40L M1_42] (H-HSFVLFGVNVPFNIIDFQMRVKC-OH; N-terminus and C-terminus assumed)
[3]; [13]
  Kd: 30 nM

B1: CD40L M1_50 (peptide)
peptide: PRWVRNRFYCLFVPSGVQRGGIHLWFSNWVR
notes: Base peptide
[4]
  IC50: 45.8 nM

B2: Cys_M1_6S-Cys_M1_189S heterodimer (peptide)
peptide 1: CHPFSIKNVFSIWNFFSVY
peptide 2: CLLLFFFSPPFSIFSFSLTTLS
modifications: disulfide I:1-II:1
notes: also called 6-189 dimer
[5]
  EC50: 0.000174 nM
[6]
  EC50, inhibition of CD40L-induced CD86 expression on primary B-cells: 140 nM

B3: PEGylated CD40L M1_42s (peptide)
peptide: {PEG}-HSFVLFGVNVPFNIIDFQMRVKS
modifications: reading uncertain
notes: also called PEGylated M1_42S
[7]
  EC50: 112 nM
[8]
  EC50 PEGylated peptide, inhibition of CD40L-induced CD86 expression on primary B-cells: 5000 nM

B4: CD40L M9_789 (peptide)
peptide: LLAEQAGTLKSELEAMPLGEYEHAARYVSEVECNWKTFAGNYSECDHCHANHQDWITDIELEESELEVNDYHWILHYTHDEDVEDEMRIHDEHEAKFYYFWPNFT
notes: Base peptide
[9]
  EC50: 331 nM
[10]
  Kd: 4 nM

B5: PEGylated CD40L M2_159s (peptide)
peptide: {PEG}-LLYVKVISFFSMLVQYNNFQTYK
modifications: reading uncertain
[7]
  EC50: 120 nM

B6: PEGylated CD40L M1_18s (peptide)
peptide: {PEG}-LPFVPYRSHVLKYGWFFPVQWSIFAVLPFQYLHRSR
modifications: reading uncertain
notes: also called PEGylated M1-18S
[7]
  EC50: 3300 nM
[8]
  EC50 PEGylated peptide, inhibition of CD40L-induced CD86 expression on primary B-cells: 90 nM

B7: CD40L M8_748 (peptide)
peptide: RIESLEGEMWLINPFNGETLDEHTLEVWLK
modifications: not checked
[11]
  EC50: 184 nM
[12]
  Kd: 5 nM

B8: PEGylated CD40L M1_6s (peptide)
peptide: {PEG}-HPFSIKNVFSIWNFFSVY
modifications: reading uncertain
notes: also called PEGylated M1_6S
[7]
  EC50: 48 nM
[8]
  EC50 PEGylated peptide, inhibition of CD40L-induced CD86 expression on primary B-cells: 1.5 nM

B9: CD40L M1_6 (peptide)
peptide: HPFSIKNVFCIWNFFSVY
notes: Base peptide
[9]
  EC50: 440 nM
[4]
  IC50: 16.3 nM
[10]
  Kd: 24 nM

B10: CD40L M8_720 (peptide)
peptide: RLPETRKAQAALATKYGIYGFCYYHYWFNGRRILESPVDAMLESGEPDFPFMLCWANENWT
notes: Base peptide
[9]
  EC50: 238 nM
[10]
  Kd: 4 nM

B11: PEGylated CD40L M1_30s (peptide)
peptide: {PEG}-DAAGREFFQIAGLFSFRHHWWQA
modifications: reading uncertain
notes: also called PEGylated M1_30S
[7]
  EC50: 32 nM
[8]
  EC50 PEGylated peptide, inhibition of CD40L-induced CD86 expression on primary B-cells: > 2000 nM

B12: PEGylated CD40L M1_9s (peptide)
peptide: {PEG}-PPRYNLFFLFRFYSSFRRDYLYF
modifications: reading uncertain
notes: also called PEGylated M1_9S
[7]
  EC50: 48 nM
[8]
  EC50 PEGylated peptide, inhibition of CD40L-induced CD86 expression on primary B-cells: 180 nM

B13: CD40L M8_747 (peptide)
peptide: LAEHAVWSLKCFPDWEWYNINIFGTDDPNHFWVECDGHGKILFPGYPEGYYENHFLHSFELED
modifications: not checked
[11]
  EC50: 197 nM
[12]
  Kd: 8 nM

B14: LAEHAVWSLKcFPDWEWYNINIFGTDDPNHFWVEcDGHGKILFPGYPEGYYENHFLHSFELED (peptide)
peptide: B13 peptide
modifications: not fully specified
[3]; [13]
  Kd: 8 nM
[2]; monomeric non-PEGylated (unmodified) base peptide; 50% reduction in control emission at 520-620 nm; read-out: EC50nmodified) CD40L/CD40-Fc/BAF617
  EC50: 197 nM

B15: CD40L M8_721 (peptide)
peptide: LWRLNEWNYSDAELLSLIEWCIDH
notes: Base peptide
[9]
  EC50: 524 nM
[10]
  Kd: 7 nM

B16: PEGylated CD40L M1_50s (peptide)
peptide: {PEG}-PRWVRNRFYSLFVPSGVQRGGIHLWFSNWVR
modifications: reading uncertain
notes: also called PEGylated M1_50S
[7]
  EC50: 1500 nM
[8]
  EC50 PEGylated peptide, inhibition of CD40L-induced CD86 expression on primary B-cells: 30 nM

B17: CD40L M7_206 (peptide)
peptide: PFTWRPTIFWIIQLIVYMRHF
notes: Base peptide; also called CD40L M1-206
[9]
  EC50: 190 nM
[10]
  Kd: 280 nM

B18: PEGylated CD40L M1_82s (peptide)
peptide: {PEG}-SIQYHWRYSRFKYYFQLIWVYYSHV
modifications: reading uncertain
[7]
  EC50: 120 nM

B19: CD40L M7_217 (peptide)
peptide: LCEMIAIYVFLWKKVFL
[8]
  EC50 unmodified peptide, inhibition of CD40L-induced CD86 expression on primary B-cells: 2500 nM

B20: CD40L M1_9 (peptide)
peptide: PPRYNLFFLFRFYCSFRRDYLYF
notes: Base peptide
[9]
  EC50: 370 nM
[4]
  IC50: 81.1 nM
[10]
  Kd: 8 nM
